Measured values reported in IntAct's records for PubMed 20010840.

B1: Signaling lymphocytic activation molecule (Homo sapiens), Q13291 (parent)
chain: MDPKGLLSLTFVLFLSLAFGASYGTGGRMMNCPKILRQLGSKVLLPLTYERINKSMNKSIHIVVTMAKSLENSVENKIVSLDPSEAGPPRYLGDRYKFYLENLTLGIRESRKEDEGWYLMTLEKNVSVQRFCLQLRLYEQVSTPEIKVLNKTQENGTCTLILGCTVEKGDHVAYSWSEKAGTHPLNPANSSHLLSLTLGPQHADNIYICTVSNPISNNSQTFSPWPGCRTDPSETKPWAVYAGLLGGVIMILIMVVILQLRRRGKTNHYQTTVEKKSLTIYAQVQKPGPLQKKLDSFPAQDPCTTIYVAATEPVPESVQETNSITVYASVTLPES

Variants of: B1
Conditions: with hema_mease H

Q: With R90A as the variant, how does the “effect of a mutation on the interaction” value read?
A: decreasing interaction

Q: Which “effect of a mutation on the interaction” value does the source give for Y91A here?
A: decreasing interaction

Q: With P88G;P89G as the variant, how does the “effect of a mutation on the interaction” value read?
A: decreasing interaction
